Laboratory results from US7056679B2, “Target specific screening and its use for identifying target binders” (Antyra, Inc., priority 2001, dated 2006).

Tests used:
DGI-2 = target: T1, DGI-2 (Homo sapiens, UniProt Q15004); assay: ELISA analysis of phage on DGI-2 polypeptide (specific binding); settings: for DGI-2 (OD): binding to DGI-2 polypeptide (specific binding), phage ELISA units read at 405 nm; for DGI-2/LDH (OD): ratio of specific binding to non-specific binding
T1 construct: encompassed the entire DGI-2 open reading frame (ORF); His-tag of vector pIVEX2.3-MCS (inferred from the vector and from the reverse primer lacking a stop codon); made in house; host or cells: cell-free in vitro translation (Rapid Translation System RTS, Roche; E. coli lysate)
T1 sequence (Q15004 1-111): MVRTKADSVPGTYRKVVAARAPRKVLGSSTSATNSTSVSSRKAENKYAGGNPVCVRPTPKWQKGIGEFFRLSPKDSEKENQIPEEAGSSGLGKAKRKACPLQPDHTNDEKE
Method in brief: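 Recombinant DGI-2 from in vitro translation, LDH (non-specific) and controls were coated at 500 ng/well and blocked with 2% milk-PBS. Phage from individual clones bound for 2 hr at room temperature, then anti-M13-HRP with ABTS was read at 405 nm; a clone counted as positive at ≥2-fold over background.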

[1] = system: lactate dehydrogenase (LDH); assay: ELISA analysis of phage on LDH (irrelevant, non-specific target); assay type: binding; settings: peptide binding to LDH polypeptide (non-specific binding); phage ELISA units read at 405 nm
Method in brief: (§1)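 Phage from picked clones (M13KO7 helper) bound 2 hr at room temperature to wells coated overnight at 4 °C with 500 ng/well anti-ETAG antibody or LDH, milk-blocked. Detection with HRP-anti-M13 (1:3000) and ABTS at 405 nm; positive when A405 ≥2-fold over background.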

E-tag antibody = assay: ELISA analysis of phage on antibody raised against ETAG (positive control); settings: peptide binding to E-tag antibody; phage ELISA units read at 405 nm
Method in brief: as §1

Row | DGI-2 (OD) (DGI-2) | DGI-2/LDH (OD) (DGI-2) | LDH (OD) [1] | Sequence | ETAG (OD) (E-tag antibody)
1 | 1.2 OD | 1.5 | 0.8 OD | HPWVTNMLVFQRPPPPGFWLSDTTPRQRNGLGQVERPSVD (DGI-2-40F-3-C7; listed as Escherichia coli) | 8.8 OD
2 | 2.5 OD | 2.6 | 1.0 OD | GLEPVPFQTDKRIAMGWTREWLVNGYGAAHRRDARMQSGH (DGI-2-40F-3-D6; listed as Escherichia coli) | 11.4 OD
3 | 2.6 OD | 2.2 | 1.1 OD | EGQRVVFLFGALVAGLCWRDR (DGI-2-20F-PP-F3; listed as Escherichia coli) | 18.7 OD
4 | 3.8 OD | 4.1 | 0.9 OD | RNWLDKDCVWMGDCGARAGE (DGI-2-20F-4-E3; listed as Escherichia coli) | 16.9 OD
5 | 2.3 OD | 2.2 | 1.1 OD | RQRSGGRWVVDRVTRVASTSP (DGI-2-20F-PP-B12; listed as Escherichia coli) | 1.9 OD
6 | 1.8 OD | 1.9 | 1.0 OD | FGSTAYADMLSQFRKFAMNIS (DGI-2-20F-PP-E1; listed as Escherichia coli) | 33.4 OD
7 | 2.7 OD | 2.7 | 1.0 OD | SIVSSRSGWQRGWIAWEAPV (SIVSSRSGWQRGWIAWFAPV; DGI-2-20F-PP-E5; listed as Escherichia coli) | 30.4 OD
8 | 6.2 OD | 5.8 | 1.1 OD | RDTTSQWSWISRGWEFPGWR (DGI-2-20R-3-C2; listed as Escherichia coli) | 11.9 OD
9 | 7.8 OD | 7.6 | 1.0 OD | QLDCLVWGLPGLRCDRPLEQ (DGI-2-20R-3-B10; listed as Escherichia coli) | 17.0 OD
10 | 1.1 OD | 1.1 | 0.9 OD | FSSVLGLLDRRGVPVVVGED (DGI-2-20F-3-C3; listed as Escherichia coli) | 11.6 OD
11 | 2.4 OD | 2.1 | 1.1 OD | VSGVPDGSMRAAQLASGYWC (DGI-2-20F-PP-G2; listed as Escherichia coli) | 5.6 OD
12 | 3.4 OD | 3.4 | 1.0 OD | GSVLERGCLEFSGFCFSLGH (DGI-2-20F-3-C1; listed as Escherichia coli) | 14.0 OD
13 | 1.2 OD | 1.1 | 1.1 OD | LHRLGQSMGGTLDHLQGWGV (DGI-2-20R-4-E5; listed as Escherichia coli) | 17.9 OD

Further lines, the sequence ahead of its results:

Row | Sequence | DGI-2 (OD) (DGI-2) | DGI-2/LDH (OD) (DGI-2) | LDH (OD) [1] | ETAG (OD) (E-tag antibody)
14 | DQRVVGSGWFERLRNWYDRA (DGI-2-20R-4-G99; listed as Escherichia coli) | 7.5 OD | 7.2 | 1.0 OD | 14.1 OD
15 | SRPGWCSRGTAWGFPGCSSS (DGI-2-20R-3-C4; listed as Escherichia coli) | 4.5 OD | 4.2 | 1.1 OD | 19.1 OD
16 | GRAGTSMTELVAWGFVQRVG (DGI-2-20F-PP-H10; listed as Escherichia coli) | 1.4 OD | 1.9 | 0.7 OD | 13.0 OD
17 | CCAWNGVGVGGLGWRVVVGP (DGI-2-20F-PP-H4; listed as Escherichia coli) | 2.1 OD | 2.2 | 1.0 OD | 32.9 OD
18 | GQISLAGVAVCSSERMLLAFSSRVFLPGLKVPVTTSQRGS (DGI-2-40F-3-A8; listed as Escherichia coli) | 0.8 OD | 1.1 | 0.8 OD | 1.5 OD
19 | QMSRVAFSPGESWRRWVEGV (DGI-2-20R-3-A2; listed as Escherichia coli) | 7.5 OD | 7.5 | 1.0 OD | 14.2 OD
20 | TANGHRYGGCGLWCKWMSGM (DGI-2-20R-4-E2; listed as Escherichia coli) | 2.7 OD | 2.5 | 1.1 OD | 18.2 OD
21 | LSHPMSPLRAASQMALTQGV (DGI-2-20R-4-H7; listed as Escherichia coli) | 3.1 OD | 2.6 | 1.2 OD | 14.1 OD
22 | RRGVCEIFTGWCVGQTNERP (DGI-2-20R-4-H626; listed as Escherichia coli) | 9.6 OD | 8.8 | 1.1 OD | 13.5 OD
